± gives the standard deviation of the averaged measurements.
Tested on: Saccharomyces cerevisiae
Test: protein stability index of tFT-peptide fusion (C-terminal peptide) (PSI (0-1 scale)); higher = more stable (slower turnover)
Settings: genetic background: wild type; temperature: 30 C
Description: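 Multiplexed protein stability (MPS) profiling in S. cerevisiae. Random 12-aa peptides (tFT-X12 library) are fused to the C-terminus of a sfGFP-mCherry tandem fluorescent timer, after mCherry and a GGGS linker. Cells are FACS-sorted into 8 mCherry/sfGFP bins and deep-sequenced. The protein stability index (PSI) is the read-weighted bin average, scaled from 0 (unstable) to 1 (stable). Only peptides with >10 reads are reported; cells were grown at 30 °C in SC-His with glucose.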
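Also: PSI is a weighted mean of sequencing reads over stability bins, variants kept only with over 10 reads, mCherry proximal and sfGFP distal, peptide attached via GGGS linker.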

Row | Sequence | protein stability index
1 | DRRARTDEKKKK | 0.646 ± 0.01
2 | DRSLRLGSLTSG | 0.6 ± 0.017
3 | DRWGGRGDYRCI | 0.72 ± 0.019
4 | DSAVTPPTTCLP | 0.719 ± 0.028
5 | DSCQALIWLVFT | 0.586 ± 0.021
6 | DSETLLSKEWKQ | 0.651 ± 0.11
7 | DSFLLSSKICWT | 0.745 ± 0.0069
8 | DSFSEFDSSPVI | 0.727 ± 0.03
9 | DSLTNAELVFAC | 0.607 ± 0.0068
10 | DSMGKVLLTCAN | 0.581 ± 0.0094
11 | DSPLAGALTEVD | 0.715 ± 0.04
12 | DSPPRATFSAPR | 0.69 ± 0.036
13 | DSPTGLKFTQSL | 0.634 ± 0.1
14 | DSRPLASAVRLS | 0.681 ± 0.017
15 | DSSFLPHLRLAP | 0.689 ± 0.053
16 | DSSRANRCISDR | 0.654 ± 0.046
17 | DTCWHELILAFS | 0.592 ± 0.087
18 | DTEYVFLYSSQE | 0.7029 ± 0.0051
19 | DTFVFSWGVGWG | 0.76 ± 0.041
20 | DTGLGSVVFVVF | 0.688 ± 0.036
21 | DTLFNRFLHTSI | 0.69 ± 0.046
22 | DVAPPFLSFFVV | 0.62 ± 0.011
23 | DVFVFHVLKKYP | 0.654 ± 0.025
24 | DVLDCTLVEQGA | 0.68 ± 0.035
25 | DVRPVWGMAGSE | 0.742 ± 0.12

Row | Sequence | protein stability index
26 | DVVFVARGRAND | 0.7002 ± 0.0037
27 | DWGRRGGALAVI | 0.641 ± 0.012
28 | DWLAFSYYFSVV | 0.599 ± 0.041
29 | EAEKTERCVIKG | 0.645 ± 0.027
30 | EAGGRWEVSCQA | 0.6133 ± 0.0017
31 | EAKKKRIDKKYE | 0.776 ± 0.068
32 | EALLWWGAWGVV | 0.769 ± 0.02
33 | EARFLWLTFLFG | 0.546 ± 0.068
34 | EARGPGPVGGGT | 0.702 ± 0.085
35 | EAVVVLVSRFGL | 0.695 ± 0.044
36 | ECFRWQRRLHYD | 0.533 ± 0.024
37 | ECSGGGCGQRVG | 0.733 ± 0.056
38 | EDACARFVRLFL | 0.678 ± 0.051
39 | EDCICPLNWFTA | 0.711 ± 0.013
40 | EDIIRPWSMFQE | 0.718 ± 0.043
41 | EDKKKKTKANDT | 0.669 ± 0.028
42 | EDLFELPNSNFS | 0.73653 ± 0.00022
43 | EEKQLNKIKRKI | 0.662 ± 0.059
44 | EEKRPWRRELLS | 0.562 ± 0.025
45 | EEMTVKKERKRI | 0.641 ± 0.051
46 | EENLLYLLYVEC | 0.544 ± 0.016
47 | EERELGVVWGEV | 0.702 ± 0.024
48 | EERENKKKLDQT | 0.659 ± 0.029
49 | EETGWGVVWVVR | 0.703 ± 0.037
50 | EFFSFPLTPYAL | 0.818 ± 0.0035

Row | Sequence | protein stability index
51 | EFKGRHEETTKS | 0.72 ± 0.08
52 | EFPSGCSSVIVA | 0.655 ± 0.049
53 | EFVGKDRWVGGL | 0.699 ± 0.053
54 | EFVGSCPLCNTF | 0.622 ± 0.015
55 | EGAGGVEGAAWG | 0.7 ± 0.018
56 | EGASLRWARLRI | 0.679 ± 0.037
57 | EGDGVGCWWELW | 0.683 ± 0.033
58 | EGDRWAGEVVRG | 0.705 ± 0.011
59 | EGEVAGRWCGRG | 0.69 ± 0.013
60 | EGGIKGKKVRTW | 0.66 ± 0.0087
61 | EGGKRGGTPITK | 0.654 ± 0.025
62 | EGGRRHSVGEQE | 0.679 ± 0.01
63 | EGGWRYNRNGPN | 0.687 ± 0.025
64 | EGHSPVQNVIEQ | 0.698 ± 0.013
65 | EGHTRLPSPSPS | 0.677 ± 0.009
66 | EGIYLTVGTVDQ | 0.707 ± 0.049
67 | EGRGKGKKKKTH | 0.7 ± 0.036
68 | EGRMEAGVEGNS | 0.657 ± 0.053
69 | EGRPEERETTGH | 0.587 ± 0.057
70 | EGTASGSSVRLE | 0.693 ± 0.049
71 | EGYEATYLGVFV | 0.706 ± 0.031
72 | EGYTPETPCYQK | 0.688 ± 0.029
73 | EHGEFLEGARGV | 0.645 ± 0.0075
74 | EHKRQRPVTRLP | 0.672 ± 0.016
75 | EIGSWKTISILV | 0.487 ± 0.024

Row | Sequence | protein stability index
76 | EIKEEKEHRNQE | 0.696 ± 0.052
77 | EINSIEQESGTT | 0.677 ± 0.019
78 | EIRGGDMGEWRE | 0.715 ± 0.027
79 | EISPQGAKWQEG | 0.655 ± 0.048
80 | EKCDYVIPVGLL | 0.702 ± 0.035
81 | EKCHVTVVNEMR | 0.643 ± 0.074
82 | EKEWKRGTRKLD | 0.702 ± 0.085
83 | EKIRSNIIKLEE | 0.64 ± 0.097
84 | EKKEINKIKNQN | 0.662 ± 0.028
85 | EKKEVSLVKKGR | 0.695 ± 0.039
86 | EKKHNKKEVIKK | 0.699 ± 0.009
87 | EKKKKTIRKRMT | 0.6691 ± 0.0018
88 | EKKKQKDKKKKN | 0.705 ± 0.0078
89 | EKKRRKKGEKRR | 0.712 ± 0.17
90 | EKLEGRKIIKKK | 0.6927 ± 0.006
91 | EKNEREEAESGG | 0.714 ± 0.038
92 | EKNKKDKNIIIG | 0.681 ± 0.04
93 | EKNKKKIERSTM | 0.684 ± 0.012
94 | EKRRRRRQEAER | 0.608 ± 0.03
95 | EKSPDYVFRWFR | 0.745 ± 0.044
96 | EKTNQPFHTLHA | 0.673 ± 0.011
97 | EKVGAGVRLAWN | 0.695 ± 0.003
98 | ELCPFLPLFLTY | 0.551 ± 0.03
99 | ELEIRSLCPDVV | 0.694 ± 0.024
100 | ELVYVFLGNLPP | 0.632 ± 0.034

Row | Sequence | protein stability index
101 | ELWRAGEVRGGK | 0.713 ± 0.035
102 | EMGGLKACRGVG | 0.56565 ± 0.00029
103 | EMNKGKREKKGE | 0.684 ± 0.084
104 | EMYEKLKSYIVK | 0.685 ± 0.013
105 | ENDKPITRKETQ | 0.605 ± 0.07
106 | ENPVVRSGAVGS | 0.698 ± 0.031
107 | EPAWVNDQKERS | 0.832 ± 0.029
108 | EPGFWGGRGGRA | 0.661 ± 0.01
109 | EPLGSGLQCTAG | 0.731 ± 0.005
110 | EPRPTPLSTPRH | 0.671 ± 0.094
111 | EQRLQRATELGR | 0.52028 ± 0.00016
112 | EQRQVQVTWRQD | 0.66 ± 0.055
113 | EQTIGDRVPGKG | 0.658 ± 0.051
114 | EQVRVDETTGRR | 0.722 ± 0.025
115 | ERARSRGGGGCV | 0.632 ± 0.046
116 | ERCQGGSGVLIR | 0.638 ± 0.1
117 | ERDDRSFEWPRQ | 0.69 ± 0.025
118 | ERGKGSRVGGST | 0.643 ± 0.1
119 | ERGREVVSRGVQ | 0.724 ± 0.014
120 | ERKESKSRKVER | 0.726 ± 0.081
121 | ERKKIKDKIKKN | 0.702 ± 0.051
122 | ERKQKKKTKEKY | 0.682 ± 0.026
123 | ERKQRKREQRDR | 0.6609 ± 0.0038
124 | ERLACRFRTVVM | 0.595 ± 0.053
125 | ERNDLGNRLSMD | 0.654 ± 0.02

Row | Sequence | protein stability index
126 | ERRGAAGAGSTR | 0.744 ± 0.045
127 | ERSRRVSNIMVL | 0.48 ± 0.095
128 | ERSVTVKIRDLL | 0.6767 ± 0.0036
129 | ERTSSSWPPPAV | 0.72 ± 0.09
130 | ERVEETGREQPT | 0.754 ± 0.037
131 | ESPTWVVLEGLG | 0.6996 ± 0.0014
132 | ESRGLVRRLGTG | 0.693 ± 0.058
133 | ESRGVRAGTWQG | 0.694 ± 0.05
134 | ESSTGYSPPLPV | 0.666 ± 0.047
135 | ETNKEDKGKKSI | 0.6577 ± 0.0051
136 | EVCAGNFVCSLG | 0.708 ± 0.015
137 | EVDRGSNWEGRL | 0.66 ± 0.011
138 | EVLTSRWCGLIS | 0.744 ± 0.074
139 | EVMAIISTRILG | 0.647 ± 0.07
140 | EVNGNYNIVGKA | 0.652 ± 0.07
141 | EVRDLSQFMKRY | 0.727 ± 0.0092
142 | EVRGKSVTIFVR | 0.57 ± 0.025
143 | EVTAQLCADKEP | 0.564 ± 0.12
144 | EVTDSVKTEPAT | 0.6463 ± 0.0043
145 | EVTEIAQFRDKR | 0.7 ± 0.017
146 | EVWGGVCWRAGG | 0.735 ± 0.12
